Patent publication US20110294728A1, “Antiviral Polypeptides” (priority 2008, published 2011)

Target: monomeric p51 subunit of HIV-1 RT (HIV-1) (UniProt P03366)
Assay: size-exclusion chromatography, 3.5 µM p51 with 20 µM FITC-PAW

**Q.** “monomeric p51 subunit of HIV-1 RT (from UniProt P03366 600-1039) (enzyme)” was tested. Which percent of p51 dimeric did it give?
**A.** 4.6%
